Reference: patent US5336488A, “Method of treating or preventing mastitis in animals with involuting mammary glands by administering recombinant cytokines” (American Cyanamid Company, priority 1992, dated 1994)

Test system: PMNs from mammary glands early in involution
Test: Phagocytic activity of cells from dry cow secretions after cytokine treatment
Format: in vivo, bovine (Holstein dairy cattle)
Conditions: treatment with IL-2
Experimental: FIG. 5: Phagocytic Ability of PMNs After Cytokine Administration from Mammary Glands Early in Involution
A total of 4 mammary glands from 2 Holstein dairy cattle just entering the dry period are used. All quarters had been infected with S. aureaus for 4-6 weeks prior to treatment. Two of the quarters are treated with Cefa-Dri® and 2 quarters are treated with Cefa-Dri®+1 mg bovine IL-2 by intramammary infusion immediately following the last milking prior to drying-off. Dry cow secretions are then collected at day 3 and day 6 of the dry-off period and the number of viable somatic cells counted on a Coulter® with a C256 Channelyzer. The total percentage of phagocytosis by PMNs is quantitatively measured by flow cytometry by measuring the percentage of cells ingesting 2μ fluorescent beads.
Somatic cells are isolated from mammary gland lavages on days 3 and 6 after treatment with Cefa-Dri® plu6 IL-2 or Cefa-Dri® alone. The cells are incubated with fluorescent latex micropheres and analyzed on the flow cytometer for their ability to phagocytize the beads.

B1: recombinant bovine interleukin-2 (protein, UniProt P05016 21-155, looked up)
Interleukin-2: APTSSSTGNTMKEVKSLLLDLQLLLEKVKNPENLKLSRMHTFDFYVPKVNATELKHLKCLLEELKLLEEVLNLAPSKNLNPREIKDSMDNIKRIVLELQGSETRFTCEYDDATVNAVEFLNKWITFCQSIYSTMT
notes: recombinant bovine interleukin-2, obtained from IMMUNEX Corp. Seattle, WA
phagocytic activity of cells of the dry gland: seems to enhance the phagocytic activity of cells of the dry gland
